experiment: soluble on expression in E. coli; label from the status in PepcDB or PDB records

Row | Sequence | soluble on expression in E. coli
1 | MEMNVAAPAAAVAGAAAPQPGQNQTGSSYTMASLYVGDLHPDVNESILFEKFSAAGPVLSIRVCRDNATRLSLGYAYVNFQQPADAERAMDTMNFEALHGKPMRIMWSQRDPAMRRSGAGNIFIKNLDKVIDNKSIYDTFSLFGNILSCKVAIDEDGFSKGYGFVHFETEEAAQNAIQKVNGMLLAGKKVFVGKFQPRAQRNRELGETAKQFTNVYVKNFGDHYNKETLEKLFAKFGNITSCEVMTVEGKSKGFGFVAFANPEEAETAVQALHDSTIEGTDLKLHVCRAQKKSERHAELKKKHEQHKAERMQKYQGVNLYVKNLDETVDDDGLKKQFESYGNITSAKVMTDENGRSKGFGFVCFEKPEEATSAVTEMNSKMVCSKPLYVAIAQRKEDRRAQLASQYMQRLASMRMHGNVPGAAMYNPTQPGPGYYVANPMQQQRNFAGGQQMVRPGGRWGMQNQYPVQNQYMMAQGPGVYQNRMGRPQNQQGGPRGPPQQYNQVAQGGVRMQGPPRTQNPGVQQQNVPRPPQQQQQQRPAPTGPKAPPQPYQAYQQRPQGIVIGGQEPLTSAMLAAAAPQEQKQLLGERIYALIEKLYPGHKDAGKITGMMLEIDNSELIMMLQDSELFRSKVDEAASVLVSAQKQ | not soluble
2 | MENFPIISLDKVNGVERAATMEMIKDACENWGFFELVNHGIPREVMDTVEKMTKGHYKKCMEQRFKELVASKALEGVQAEVTDMDWESTFFLKHLPISNISEVPDLDEEYREVMRDFAKRLEKLAEELLDLLCENLGLEKGYLKNAFYGSKGPNFGTKVSNYPPCPKPDLIKGLRAHTDAGGIILLFQDDKVSGLQLLKDGQWIDVPPMRHSIVVNLGDQLEVITNGKYKSVMHRVIAQKDGARMSLASFYNPGSDAVIYPAPALVEKEAEENKQVYPKFVFDDYMKLYAGLKFQAKEPRFEAMKAMETDVKMDPIATV | soluble
3 | MENNNGFADMADYLGKLSQVDATKLSIESLTAAANFYMEKLLPNIPKSLLKKKHMVDQVKVNIKDNEVQVAFEDTAFYWRFAENGTVNQKAQHFASGTFEQNKDQIEKIMTQQILDLWKG | soluble
4 | MENNVESNLQPVPMRYGDKRYYSWNQHLREQFGEKVFKVPLDAGFDCPNRDGNVASGGCTFCSERGSGDFAGDRKDDLVTQFHTIKERMHKKWTSGKYIGYFQAYTNTYAPVETLREYYEVILEQEGVVGLAIATRPDCLPDDVVEYLAELNKRTYLWVELGLQTVHERTALLINRAHDYQCYVDGVNKLRKHGIRVCSHIINGLPLENHQMMMETAKEVAKLDVQGIKIHSLHLLKRTPMVKQYEKGLVEFMSLEEYVNLVVDQLEVLPPHMIIHRLMGDGPGDLMIGPMWSMKKWEVLNAIEAELERRDSWQGKHYRAQVEVQ | not soluble
5 | MENPMNTDHTKRNLFELYAELIHQQEKWEGLIKAFLSDELRKLDVEHGSKSQLTMTEIHVLSCVGDNEPINVTSIAEKMNTTKATVSRISTKLLGAGFLHRTQLSDNKKEVYFRLTPAGKKLHSLHKYYHQKAEQRFLSFFDRYTEEEILFAERLFRDLVTKWYPSSEEIEGGLPSIFK | not soluble
6 | MENRPVNIVLPKIENPILIEGYPGIGLVGHIAANFLAKELKMEVIGYVESSFIPPMSLILEGKPNPPLRFYGKDNIIIAVADIYLPPTLINEIAKEIANYLEQNKAEKVISLGGMGIGIFKDKFEVWGVGGTEEENKELQDLGVKILEYGSISGMSGKLLWEASRRGLKSYVILGETFGDRPDPRAAANVVEVLDRMLTLNVSVEPLLKEAEMIEEQLRKMHEQMEKARRSVEKQYETMYL | soluble
7 | MENSHKRGRPDILHQALLVILTDPVIKGDIFIHTIQSKIIKVNPNMRPPKNYLRFIGLMEQLLKYGKIPINGDETLMEVTNLTLDNIVNRYDLILLSEKGEKINPEEICKLDEKWLLGIGAFPHGDFSDKILNLAKKIYSISGFPLETQQVLCRIFSACNS | soluble
8 | MEPAAGSSMEPSADWLATAAARGRVEEVRALLEAGALPNAPNSYGRRPIQVMMMGSARVAELLLLHGAEPNCADPATLTRPVHDAAREGFLDTLVVLHRAGARLDVRDAWGRLPVDLAEELGHRDVARYLRAAAGGTRGSNHARIDAAEGPSDIPD | soluble
9 | MEPGLDGGYLLLGVDWAINDKGDTVYRPVGLPDPDKVQRDLASQCASMLNVALRPEMQLEQVGGKTLLVVYVPEADVTHKPIYKKATGLPGGAYRRIGSSDQRCVDEDLWVLRGLEHHHHHH | not soluble
10 | MEPVFKEPSPKKKRVENPPENAPDAPKKPQLKHESEFLRSIPSSSQYEKSFMHRDTISHVIATKTDFIITASVDGHLKFWKKKHSEGVEFVKHFRCHLSEFSHICANIDGTLLATVCEADKSVKVFDIENFDMINMIKLDFPPKTANWVHQSNDPIAHLAIGAADSGKIIVVDGKATAAPICIKDKLHSTPVKIIEYSQSLDIIVSIDESGMIECWNGERGDFQFPETKLTWEYKLETDLYDFVKAKTIPVCATFDPSGLKLATFAEDRKIRIFNVKTGKLAQLIDETTQKYHCEAKENKNYGLQHMEWSRRLASEKEMDKDKKNSLKYTKICFDQSGNFLLYPTPIGVKVFNLVTNEVSRTIGRDEAIRFVAVSLCNALPDIRQKLQGAAITLETAAADNPTLNRKTDPDPLMVCCALRKNRFYLFTNTEPYNVEDDEGNPSVSGRDVFNERPKKEDLLTALDTEGGEKVLNKEAIIHTSFGDITIRLFGDECPKTVENFCTHSRRGYYNGLTFHRVIKSFMIQTGDPSGKGTGGESIWGEDFEDEFHPRLRHDKPFKVSMANAGGGNTNGSQFFITVCPADWLDGKNTLFGEVTAGMSVVQRINQVSTFERSGRPRESIQIMSISLK | not soluble
11 | MEQPQEEAPEVREEEEKEEVAEAEGAPELNGGPQHALPSSSYTDLSRSSSPPSLLDQLQMGCDGASCGSLNMECRVCGDKASGFHYGVHACEGCKGFFRRTIRMKLEYEKCERSCKIQKKNRNKCQYCRFQKCLALGMSHNAIRFGRMPEAEKRKLVAGLTANEGSQYNPQVADLKAFSKHIYNAYLKNFNMTKKKARSILTGKASHTAPFVIHDIETLWQAEKGLVWKQLVNGLPPYKEISVHVFYRCQCTTVETVRELTEFAKSIPSFSSLFLNDQVTLLKYGVHEAIFAMLASIVNKDGLLVANGSGFVTREFLRSLRKPFSDIIEPKFEFAVKFNALELDDSDLALFIAAIILCGGE | soluble
12 | MERAGICHSDGFDLAYRIEGEGAPILVIGSAAYYPRLFSSDIKQKYQWVFVDHRGFAKPKRELRAEDSRLDAVLADIERMRTFLQLEDVTTLGHSGHAFMALEYARTYPKQVRKVALFNTAPDNSEERQRKSESFFMETASLERKKRFEKDIENLPQDIDKDPERRFVHMCIRAEAKSFYQERPHAAALWDGVFTNMPIIDELWGNTFARIDLLQRLADVRMPVYIGLGRYDYLVAPVSLWDAVDGLYPHVDKVIFEKSGHQPMLEEPEAFDQSFRKWLDQ | not soluble
13 | MERHVPEPTHTLEGWHVLHDFRLLDFARWFSAPLEAREDAWEELKGLVREWRELEEAGQGSYGIYQVVGHKADLLFLNLRPGLDPLLEAEARLSRSAFARYLGRSYSFYSVVELGSQEKPLDPESPYVKPRLTPRVPKSGYVCFYPMNKRRQGQDNWYMLPAKERASLMKAHGETGRKYQGKVMQVISGAQGLDDWEWGVDLFSEDPVQFKKIVYEMRFDEVSARYGEFGPFFVGKYLDEEALRAFLGL | soluble
14 | MERKALVTGGSRGIGRAIAEALVARGYRVAIASRNPEEAAQSLGAVPLPTDLEKDDPKGLVKRALEALGGLHVLVHAAAVNVRKPALELSYEEWRRVLYLHLDVAFLLAQAAAPHMAEAGWGRVLFIGSVTTFTAGGPVPIPAYTTAKTALLGLTRALAKEWARLGIRVNLLCPGYVETEFTLPLRQNPELYEPITARIPMGRWARPEEIARVAAVLCGDEAEYLTGQAVAVDGGFLAY | soluble
15 | MERKLGISLYPEHSTKEKDMAYISAAARHGFSRIFTCLLSVNRPKEEIVAEFKEIINHAKDNNMEVILDVAPAVFDQLGISYSDLSFFAELGADGIRLDVGFDGLTEAKMTNNPYGLKIELNVSNDIAYLENILSHQANKSALIGCHNFYPQKFTGLPYDYFIRCSERFKKHGIRSAAFITSHVANIGPWDINDGLCTLEEHRNLPIEVQAKHLWATGLIDDVIIGNAYASEEELEKLGNLNRYMLQLKVHFVDEATEVEKRATLQELHVRRGDITEYMVRSTEVRKKYKDYDFPVRESVLQERGQVVIGNNSFGKYKGELQIILKEMPIDERKNIVGTIAEEELFLLDYVGAWTQFTCVE | soluble
16 | MERTVKLRVKVDYKTYSALKEVEKEYREVLEEAINYGLSNKTTSFTRIKAGVYKTEREKHKDLPSHYIYTACEDASERLDSFEKLKRRGRSYTEKPSVRRVTIHLDDHLWKFNLDRISISTKRSRILISPTFPKIFWRYYNKGWRIASEARFKLLKGNVVEFYVIFKRDEPKPYEPKGFISVDLNENSVSVLVDGKPMLLETNTKRITLGYEYRRKAITTGKSTKDREVRRKLKRLRERNKKVDIRRKLAKLIVKEAFESRSVIVLEDLPRRTPEHMIKDVKDSQLRLRIYRAAFSSMKNAIIEKAREFGVPVVLVNPSHTSTVCPVHGTKIVYQLDGGDAPRVGVCEKGKEKWHRDVVALYNLARRAGDVSPVPLGSKESHDPPKRWLRAKSLHSIMNDHKMIEMKVLEHHHHHH | not soluble
17 | MESKEERALNNLIVENVNQENDEKDEKEQVANKGEPLALPLNVSEYCVPRGNRRRFRVRQPILQYRWDIMHRLGEPQARMREENMERIGEEVRQLMEKLREKQLSHSLRAVSTDPPHHDHHDEFCLMP | soluble
18 | MESLKSNLFLTREAYLEAFETIMTPLKTAILTSEKPGVNFGSSGAVYDQQHAEMEALIRPLWGIGPYWVTCKDDVLRDAYVEKLIAGTDPSSPDYWGVIVDYDQYIVEAAALSLTLLLHKTYFWSCFSEKQQENIMVWLNKALGCKIPKNNWTFFKVLIRLALEGCGQVINQAELEEELALIECMYLGDGWYMDGKTTQRDYYISFAFHYYSLIYVKFMRERDPIRAKRFTERAVMFAQDYLYYFDEEGEALPYGRSQTYRFAQGAFFAALIFAEVEALPWGQIKTLLAKHLHCWMQQAIFTYDGRLSIGYHYENLVMAEGYNAPGSPYWAFKTFLLLAVDQDHPFWRAEPLAIKREEKRLEHHHHHH | not soluble
19 | MESVTRIKVRYAETDQMGVVHHSVYAVYLEAARVDFLERAGLPYHRVEARGVFFPVVELGLTFRAPARFGEVVEVRTRLAELSSRALLFRYRVEREGVLLAEGFTRHLCQVGERAARIPEDIYRALSVLHLK | soluble
20 | METETATTPTGNTEPTAAASAEPPKSDKVTVRLRNIADAPVLKNKKMVVNPTDTVASFILKLRKLLNIQANNSLFLYIDNTFAPSPDTTFETLSRCYSVKITDKEILELQYSITPAYG | soluble
21 | METKDLIVIGGGINGAGIAADAAGRGLSVLLLEAQDLACATSSASSKLIHGGLRYLEHYEFRLVSEALSERETLLKMAPHIIFPMRFRLPHQPHLRPAWMIRIGLFMYDNIGKRVSLPASKGLKFGADSVLKPELKQGFEYSDCWVDDARLVVLNAQEVAKRGGEVRTRTKVTRARREQGVWIVDAVDSLTGETFTWRAKGLVNATGPWVKEFFDDGLQLKSPYGIRLIKGSHIVVPRVHNQPQAYILQNKDHRIVFVIPWQDDYSIIGTTDVEYKGNPHDVKIDDNEVGYLLDVYNDHFKQQLTRDDIVWTYSGVRPLCDDESDSPQAITRDYTLSVDDDNGQAPLLSVFGGKLTTYRKLAEHALDKLHKYYPQAGKAWTKDAVLPGGDIAGTRDDYAAALRRRFNLPESLTRRYSRTYGSNSELILANVKGLSDLGEDFGHDLYEAELRYLVEKEWAVTLDDVIWRRTKLGMRFDDAQKQRISDWLVSYRQQQMAKAGLEHHHHHH | soluble

From the DeepSol protein solubility set
